Test results published in patent EP2718311B1 (TLA Targeted Immunotherapies AB, dated 2018).
Each block holds one molecule with its values, some of them ahead of it.

How the values were obtained:
[1] = target: hCXCR3 (human) (UniProt P49682); test: cell-based or functional assay
[2] = target: hCCR9 (human) (UniProt P51686); test: cell-based or functional assay
[3] = target: CCR2 on human peripheral blood cells (monocytes, T cells) (human) (UniProt P41597); test: flow cytometry, labelled MCP-1 on fixed blood leukocytes of healthy donors, 30 min at 4 °C
[4] = target: CCR2 on human peripheral blood cells (monocytes, T cells) (human) (UniProt P41597); test: blood of three healthy donors passed through a column of bMCP-1 coupled matrix; flow cytometry before and after
[5] = target: hCCR5 (human) (UniProt P51681); test: cell-based or functional assay
[6] = target: T1, CCR1 on human peripheral blood cells (human) (UniProt P32246); test: blood of a healthy donor passed through a column of biotinylated RANTES coupled matrix; flow cytometry for CCR1, 3 and 5-expressing cells
T1 sequence (looked up): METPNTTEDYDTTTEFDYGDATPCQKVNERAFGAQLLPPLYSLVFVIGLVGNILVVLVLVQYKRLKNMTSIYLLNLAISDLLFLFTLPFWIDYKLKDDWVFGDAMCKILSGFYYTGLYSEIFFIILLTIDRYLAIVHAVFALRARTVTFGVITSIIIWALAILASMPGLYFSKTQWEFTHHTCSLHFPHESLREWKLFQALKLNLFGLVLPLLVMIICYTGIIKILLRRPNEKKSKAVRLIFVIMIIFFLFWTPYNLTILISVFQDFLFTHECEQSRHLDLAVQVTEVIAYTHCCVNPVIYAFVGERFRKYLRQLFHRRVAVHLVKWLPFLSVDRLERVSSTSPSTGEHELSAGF

[7] = target: hCCR3 (human) (UniProt P51677); test: as above
[8] = target: hCCR5 (human) (UniProt P51681); test: as above
[9] = target: hCCR3 (human) (UniProt P51677); test: cell-based or functional assay
[10] = target: hCCR6 (human) (UniProt P51684); test: cell-based or functional assay
[11] = target: T2, hCCR2b (human, UniProt P41597 1-374); test: cell-based or functional assay
T2 chain: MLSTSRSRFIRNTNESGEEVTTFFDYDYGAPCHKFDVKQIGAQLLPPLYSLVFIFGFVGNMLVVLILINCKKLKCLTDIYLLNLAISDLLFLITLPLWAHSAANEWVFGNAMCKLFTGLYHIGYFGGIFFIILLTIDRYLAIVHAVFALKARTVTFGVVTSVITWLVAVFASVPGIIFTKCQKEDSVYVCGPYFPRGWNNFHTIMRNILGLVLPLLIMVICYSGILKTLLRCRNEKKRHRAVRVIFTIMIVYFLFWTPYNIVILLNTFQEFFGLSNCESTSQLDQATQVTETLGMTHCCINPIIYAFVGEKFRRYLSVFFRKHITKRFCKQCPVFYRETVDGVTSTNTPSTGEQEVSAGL

Sequence of hCCR3 (human) (P51677 whole entry): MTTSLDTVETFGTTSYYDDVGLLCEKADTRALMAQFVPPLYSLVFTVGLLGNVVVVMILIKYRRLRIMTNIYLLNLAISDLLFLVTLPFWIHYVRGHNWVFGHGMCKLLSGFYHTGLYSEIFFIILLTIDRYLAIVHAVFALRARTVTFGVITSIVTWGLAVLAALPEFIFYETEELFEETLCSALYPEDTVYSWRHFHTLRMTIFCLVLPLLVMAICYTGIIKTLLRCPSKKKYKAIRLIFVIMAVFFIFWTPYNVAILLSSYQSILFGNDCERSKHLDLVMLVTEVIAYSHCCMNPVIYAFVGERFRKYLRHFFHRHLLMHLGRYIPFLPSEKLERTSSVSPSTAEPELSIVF
Sequence of hCXCR3 (human) (P49682 whole entry): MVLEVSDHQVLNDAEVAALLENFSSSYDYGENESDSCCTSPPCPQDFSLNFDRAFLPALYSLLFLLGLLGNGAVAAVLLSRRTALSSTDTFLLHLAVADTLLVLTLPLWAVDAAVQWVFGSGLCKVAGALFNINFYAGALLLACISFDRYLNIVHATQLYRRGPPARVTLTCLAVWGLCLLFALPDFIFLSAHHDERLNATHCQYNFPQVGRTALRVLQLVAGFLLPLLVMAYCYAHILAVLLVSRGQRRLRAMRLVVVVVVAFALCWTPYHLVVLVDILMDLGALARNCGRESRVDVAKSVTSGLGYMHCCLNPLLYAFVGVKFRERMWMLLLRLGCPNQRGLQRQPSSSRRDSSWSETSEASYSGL
Sequence of hCCR9 (human) (P51686 whole entry): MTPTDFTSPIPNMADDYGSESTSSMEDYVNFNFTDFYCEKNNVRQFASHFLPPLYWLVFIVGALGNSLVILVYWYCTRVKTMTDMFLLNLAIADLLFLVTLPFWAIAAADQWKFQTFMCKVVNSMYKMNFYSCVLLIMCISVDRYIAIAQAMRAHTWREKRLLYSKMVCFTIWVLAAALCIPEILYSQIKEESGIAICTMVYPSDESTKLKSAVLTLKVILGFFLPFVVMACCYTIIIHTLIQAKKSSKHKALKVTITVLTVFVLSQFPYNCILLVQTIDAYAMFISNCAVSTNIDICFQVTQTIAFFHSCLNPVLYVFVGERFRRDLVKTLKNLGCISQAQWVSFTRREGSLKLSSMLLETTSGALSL
Sequence of hCCR5 (human) (P51681 whole entry): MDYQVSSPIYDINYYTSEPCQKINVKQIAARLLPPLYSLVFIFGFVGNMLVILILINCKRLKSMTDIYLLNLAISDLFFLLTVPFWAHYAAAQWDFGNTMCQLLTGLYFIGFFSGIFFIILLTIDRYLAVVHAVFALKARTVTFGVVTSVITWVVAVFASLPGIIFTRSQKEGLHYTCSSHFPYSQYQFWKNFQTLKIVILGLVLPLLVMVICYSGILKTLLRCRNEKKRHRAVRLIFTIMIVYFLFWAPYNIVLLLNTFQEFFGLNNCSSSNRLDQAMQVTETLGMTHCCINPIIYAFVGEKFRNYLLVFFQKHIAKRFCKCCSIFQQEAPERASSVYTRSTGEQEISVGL
Sequence of hCCR6 (human) (P51684 whole entry): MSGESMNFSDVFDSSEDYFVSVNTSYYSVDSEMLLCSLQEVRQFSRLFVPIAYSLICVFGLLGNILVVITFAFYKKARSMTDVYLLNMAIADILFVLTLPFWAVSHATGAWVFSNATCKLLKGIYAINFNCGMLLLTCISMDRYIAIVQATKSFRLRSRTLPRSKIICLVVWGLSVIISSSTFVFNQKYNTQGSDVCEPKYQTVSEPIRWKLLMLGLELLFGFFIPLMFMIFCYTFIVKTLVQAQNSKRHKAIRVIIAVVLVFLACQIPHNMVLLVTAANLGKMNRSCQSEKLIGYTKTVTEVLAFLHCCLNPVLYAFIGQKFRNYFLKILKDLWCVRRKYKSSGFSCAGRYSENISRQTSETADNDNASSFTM

agonist activity in an Aequorin assay, EC50 [1]: 4.4 nM
Molecule: recombinant native IP-10 (from UniProt P02778 22-98) (ligand)

agonist activity in an Aequorin assay, EC50 [2]: 63.6 nM
Molecule: biotinTECK(Met to Nleu substitution) (from UniProt O15444 25-97) (ligand)

percent of monocytes that bound the chemokine [3]: 90%
remaining levels of monocytes after column passage [4]: 20 to 30%
Molecule: biotinylated MCP-1 (from UniProt P13500 24-99) (ligand)

agonist activity in an Aequorin assay, EC50 [2]: 67.9 nM
Molecule: recombinant native TECK (from UniProt O15444 24-150) (ligand)

agonist activity in an Aequorin assay, EC50 [5]: 0.5 nM
reduction of chemokine receptor-expressing cells by the column [6]: 20%
reduction of chemokine receptor-expressing cells by the column [7]: 20%
reduction of chemokine receptor-expressing cells by the column [8]: 20%
Molecule: biotinRANTES (CCL5) (from UniProt P13501 24-91) (ligand)

activity in an Aequorin assay (agonist), EC50 [9]: 10.7 nM
Molecule: recombinant native eotaxin (from UniProt P51671 24-97) (ligand)

agonist activity in an Aequorin assay, EC50 [1]: 0.7 nM
Molecule: recombinant native ITAC (from UniProt O14625 22-94) (ligand)

agonist activity in an Aequorin assay, EC50 [10]: 1 nM
Molecule: recombinant native MIP-3α (from UniProt P78556 27-96) (ligand)

activity in an Aequorin assay (partial agonist), EC50 [11]: 23.5 nM
B1: recombinant native MCP-2 (ligand, human, UniProt P80075 24-99, looked up)
chain: QPDSVSIPITCCFNVINRKIPIQRLESYTRITNIQCPKEAVIFKTKRGKEVCADPKERWVRDSMKHLDQIFQNLKP
